Residue numbers refer to the chain shown, from its start.
T1: human Siglec-15 ECD-his protein (Acrobiosystems, Cat #: SG5-H52H3) (human, UniProt Q6ZMC9 20-263)
T1 construct: Bought protein; only its extracellular domain stood in the assay; also called human Siglec-15 protein; recombinant human Siglec-15 protein; not shown: his tag
T1 sequence: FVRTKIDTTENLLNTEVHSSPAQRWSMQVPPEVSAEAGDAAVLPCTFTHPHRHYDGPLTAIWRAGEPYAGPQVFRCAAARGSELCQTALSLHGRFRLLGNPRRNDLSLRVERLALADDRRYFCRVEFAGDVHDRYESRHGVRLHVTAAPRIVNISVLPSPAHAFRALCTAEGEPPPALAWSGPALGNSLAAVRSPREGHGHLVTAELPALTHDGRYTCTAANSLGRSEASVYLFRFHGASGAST

T2: human Siglec-15 on CHO-K1/human Siglec-15 cells (KYinno, Beijing) (human, UniProt Q6ZMC9 20-328)
T2 sequence: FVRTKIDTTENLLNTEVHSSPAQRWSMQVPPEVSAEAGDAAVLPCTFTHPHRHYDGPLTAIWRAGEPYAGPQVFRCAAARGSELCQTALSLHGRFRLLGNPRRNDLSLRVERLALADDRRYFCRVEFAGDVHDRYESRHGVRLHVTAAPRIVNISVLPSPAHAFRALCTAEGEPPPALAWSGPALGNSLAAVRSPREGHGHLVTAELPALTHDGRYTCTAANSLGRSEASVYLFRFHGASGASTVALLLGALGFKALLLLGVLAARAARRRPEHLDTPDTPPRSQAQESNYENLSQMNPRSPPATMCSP

T3: cynomolgus monkey Siglec-15 on CHO-K1/cynomolgus monkey Siglec-15 cells (cynomolgus monkey, UniProt Q6ZMC9 20-328 (human entry))
T3 chain: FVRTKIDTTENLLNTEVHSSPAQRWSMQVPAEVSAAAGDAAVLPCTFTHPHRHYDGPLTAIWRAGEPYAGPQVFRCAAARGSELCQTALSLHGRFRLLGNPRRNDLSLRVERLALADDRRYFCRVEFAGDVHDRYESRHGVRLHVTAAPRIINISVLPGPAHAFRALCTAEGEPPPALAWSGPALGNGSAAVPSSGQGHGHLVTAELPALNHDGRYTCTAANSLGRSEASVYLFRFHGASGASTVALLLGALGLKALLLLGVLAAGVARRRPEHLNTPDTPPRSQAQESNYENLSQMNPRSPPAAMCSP

B1: PR301289-1 (antibody, human IgG1, kappa, V domains shown)
VH: QVQLVQSGAEVKKPGASVKVSCRASGYTFTSYDINWVRQATGQGLEWMGWMNPHSGDTGYAQNFQGRVTMTWQTSISTAYMELSSLRSEDTAVYYCARRRVGVYYYGMDVWGQGTTVTVSS
VL: ENVLTQSPGTLSLSPGERATLSCRASQSVSSSYFGWYQQKPGQAPRLLIYGASSRATGIPDRFSGSGSGTDFTLTISRLEPEDFAVYYCQQYGSSPITFGQGTRLEIKR
notes: PTM variant of PR301289: HFR3 N/Q; human IgG1/kappa
B2: PR301289-2 (antibody, human IgG1, kappa, V domains shown)
VH: B1 VH with Y106H
VL: B1 VL
notes: PTM variant of PR301289: HFR3 N/Q; CDRH3 YYY/YYH; human IgG1/kappa
B3: PR301286-1 (antibody, human IgG1, kappa, V domains shown)
VH: QVQLVESGGGVVQPGKSLRLSCAASGFTFSSYGMHWVRQAPGKGLEWVAVIWIDASNRYYAASVKGRFTISRDNSKNTLYLQMNSLRAEDTAVYYCTRGYGDYAYVMDVWGQGASVTVSS
VL: DIVMTQSPLSLPVTPGEPASISCRSSQSLLPGNGYNYLDWYLQKPGQSPQLLIYLGSNRASGVPDRFSGSGSGTDFTLKISRVEAEDVGIYYCMQALQSPLTFGGGTKVEIKR
notes: PTM variant of PR301286: VH(HCDR2) G/A; human IgG1/kappa
B4: PR301286-3 (antibody, human IgG1, kappa, V domains shown)
VH: B3 VH with A55V
VL: B3 VL
notes: PTM variant of PR301286: VH(HCDR2) G/V; human IgG1/kappa
B5: PR301286-5 (antibody, human IgG1, kappa, V domains shown)
VH: B3 VH
VL: B3 VL with N33S
notes: PTM variant of PR301286: VH(HCDR2) G/A; VL(LCDR1) N/S; human IgG1/kappa
B6: PR301286-6 (antibody, human IgG1, kappa, V domains shown)
VH: B3 VH
VL: B3 VL with G34A
notes: PTM variant of PR301286: VH(HCDR2) G/A; VL(LCDR1) G/A; human IgG1/kappa
B7: PR301286-7 (antibody, human IgG1, kappa, V domains shown)
VH: B3 VH
VL: B3 VL with G34T
notes: PTM variant of PR301286: VH(HCDR2) G/A; VL(LCDR1) G/T; human IgG1/kappa
B8: PR300679 (antibody, human IgG1, kappa, V domains shown)
VH: QVQLQESGPGLVKPSGTLSLTCAVSGGSISSSNWWSWVRQPPGKGLEWIGEIYHSGSTNYNPSLKSRVTISVDKSKNQFSLKLSSVTAADTAVYYCAREYSSSWLSVMDAWGQGASVTVSS
VL: not shown

target: T1, human Siglec-15 ECD-his protein …; assay: ELISA, coated human Siglec-15 ECD-his
Method: […] human Siglec-15 ECD-his protein (Acrobiosystems, Cat #: SG5-H52H3) dissolved in PBS was added to an ELISA plate at 100 μL/well for coating and the plate was incubated overnight at 4° C. The ELISA plate was then blocked with PBST (PBS+0.05% Tween 20) containing 2% BSA at 200 μL/well and incubated at 37° C. for 1 h. The ELISA plate was washed 4 times with PBST. The anti-Siglec-15 antibody diluted in a gradient (5-fold dilution, starting concentration: 6.67 nM) was added to the ELISA plate at 100 μL/well and the plate was incubated at 37° C. for 1 h. The ELISA plate was washed 4 times with PBST. The goat anti-human IgG (H+L)-HRP (1:5000, Jackson, Cat #: 109-035-088) was added at 100 μL/well and the plate was incubated at 37° C. for 1 h. The ELISA plate was washed 4 times with PBST. The TMB substrate (Biopanda, Cat #: TMB-S-003) was added at 100 μL/well, and the plate was incubated at room temperature for 5 min, and then the stop buffer (Solarbio, Cat #: C1058) was added at 100 μL/well to stop the reaction.

| EC50 [nM] | Binder |
| --- | --- |
| 0.02 | B1 |
| 0.029 | B2 |
| 0.019 | B3 |
| 0.019 | B4 |
| 0.02 | B5 |
| 0.029 | B6 |
| 0.025 | B7 |

target: T2, human Siglec-15 on CHO-K1/human …; assay: flow cytometry on CHO-K1/human Siglec-15 cells
Method: (§1) CHO-K1/human Siglec-15 cells (KYinno, Beijing) were adjusted to a density of 1×10⁶/mL with PBS, and the cell suspension was added to a 96-well V-bottom plate at 100 μL/well. The 96-well V-bottom plate was centrifuged at 1000 rpm for 5 min and washed once with PBS+2% FBS. The cells were resuspended in 100 L of antibody diluted in a gradient (5-fold dilution, starting concentration: 500 nM) and incubated at 4° C. for 1 h, and PR300066 and hIgG1 were used as positive control and negative control, respectively. After 1 h, the cells were washed twice with PBS+2% FBS. The cells were incubated with 100 μL of Alexa Fluor 488 goat anti-human IgG (Jackson, Cat #: 109-545-098) at 4° C. for 1 h in the dark and then washed twice with PBS+2% FBS. The cells were then resuspended in 200 μL of PBS+2% FBS. The fluorescence intensity of the cells was analyzed using a BD FACSCanto™ II flow cytometer.

| EC50 [nM] | Maximum (MFI) | Binder |
| --- | --- | --- |
| 1.26 | 28800 | B2 |
| 1.03 | 25300 | B8 |
| 1.81 | 24400 | B5 |

Target: T3, cynomolgus monkey Siglec-15 on …
Assay: flow cytometry on CHO-K1/cynomolgus monkey Siglec-15 cells
Method: as §1, with “cDNAs encoding cynomolgus monkey Siglec-15 (the amino acid sequence of which is set forth in SEQ ID NO: 155) were obtained by gene synthesis and cloned into the expression vector pcDNA3.1, and then the expression vector was transfected into CHO-K1 cells to construct CHO-K1/cynomolgus monkey Siglec-15” for “CHO-K1/human Siglec-15”, “cells expressing cynomolgus monkey Siglec-15. CHO-K1/cynomolgus monkey Siglec-15 cells” for “cells (KYinno, Beijing)”, “100 µL/well.” for “100 μL/well.”, “100 μL” for “100 L”, “BD FACS Canto™” for “BD FACSCanto™”

| EC50 [nM] | Maximum (MFI) | Binder |
| --- | --- | --- |
| 1.34 | 4420 | B2 |
| 5.26 | 4280 | B5 |

target: T1, human Siglec-15 ECD-his protein …; assay: BLI (Octet RED96), antibody on AHC sensor, Siglec-15 ECD-his as analyte
Method: Recombinant Human Siglec-15 Protein Affinity was determined using an Octet RED96 instrument (ForteBio) and an anti-human IgG Fc capture sensor (AHC biosensor, ForteBio, Cat #: 18-5060) according to the detailed procedures and methods provided by the manufacturer. Specifically, candidate antibodies were each diluted to a final concentration of 6 µg/mL and directly immobilized on AHC biosensors for kinetic measurements. The antigenic protein Siglec-15 ECD-his protein (Acrobiosystems, Cat #: SG5-H52H3) was diluted with 10× Kinetics buffer to 3 concentrations of 60 nM, 30 nM, and 15 nM separately and injected as the analyte for 120 s with a dissociation time of 400 s and then subjected to regeneration with 10 mM glycine HCl (pH 1.5) for 15 s. The association rate (kon) and dissociation rate (kdis) were calculated using a simple one-to-one Languir binding model (Octet Red96 data analysis software). The equilibrium dissociation constant (kD) was calculated as the ratio of kdis/kon.

| Kd [nM] | koff [s⁻¹] | kon [M⁻¹ s⁻¹] | Binder |
| --- | --- | --- | --- |
| 0.116 | 3.89e-05 | 337000 | B1 |
| 0.19 | 5.96e-05 | 314000 | B2 |
| 0.106 | 0.000102 | 968000 | B8 |
| 0.0162 | 3.85e-06 | 238000 | B3 |
| 0.195 | 6.44e-05 | 330000 | B4 |
| 0.137 | 4.93e-05 | 360000 | B5 |
| 0.279 | 0.000107 | 384000 | B6 |
| 0.361 | 0.000137 | 379000 | B7 |

— patent US20260070974A1 (NONA BIOSCIENCES SUZHOU, published 2026)
